Data on 41 sequences can be found in the nanobody polyreactivity screen of Harvey et al. (2022).

The nature of this data set: yeast display, Sf9 membrane polyspecificity reagent, FACS + sequencing; frameworks hold sequencing errors. Summed up: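 Sorting gates, low and high (top ~1%), were placed on anti-HA fluorescence to track expression and on streptavidin fluorescence to track reagent binding. A clone's polyreactivity label is taken from the gate it came out of. The reagent was 10% biotinylated, detergent-solubilized Sf9 membrane, applied for 1 hour at 4 °C to galactose-induced yeast display cells.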
With “QVQLVESGGGLVQAGGSLRLSCAASGFTFGKYAMGWYRQAPGKERELVAAITWSGGRTYYADSVKGRFTISRDNAKNTVYLQMNSLKPEDTAVYYCNKVYLYSSLARPYDYWGQGTQVTVSS”, the “polyreactivity (PSR sort gate)” value is “high polyreactivity”.

As to “QVQLVESGGGLVQAGGSLRLSCAASGFTFGNNAMGWYRQAPGKERELVAAISKRGSSTYYADSVKGRFTISRDNAKNTVYLQMNSLKPEDTAVYYCAAPRSRSRTSRFDYWGQGTQVTVSS”, the “polyreactivity (PSR sort gate)” value is recorded as “high polyreactivity”. The result for “QVQLVESGGGLVQAGGSLRLSCAASGFTFGNNGMGWYRQAPGKERELVASISGGGDSTYYADSVKGRFTISRDNAKYTVYLQMNSLKREDTAVYYCAADYRQEPGYTGYYYWGQGTQVTVSS” reads “low polyreactivity”. The result for “QVQLVESGGGLVQAGGSLRLSCAASGFTFGQYVMGWYRQAPGKERELVAAISFSGGSTYYADSVKGRFTISRDNAKNTVSVQMTSLKPEDTAVYYCAADVNVLYLLRFSHRSNYGYWGQGTQVTVSS” reads “high polyreactivity”. The entry for “QVQLVESGGGLVQAGGSLRLSCAASGFTFGRKALGWYRQAPGKERELVAAISSSEHFYVRRLLKGRFTISRENAKNTVYLQMNSLKPEDTAVYYCATDNSGEVEYWGQGTQVTVSS” is “high polyreactivity”; for “QVQLVESGGGLVQAGGSLRLSCAASGFTFGRNAMGWYRQAPGKERELVAAISRGGSTYYADSVKGRFTISRDNAKNTVYLQMNSLKPEDTAVYYCAAETFLKPQYFKKFGYWGQGTQVTVSS” it is “high polyreactivity”.

As for “QVQLVESGGGLVQAGGSLRLSCAASGFTFGRNTMGWYRQAPGKERELVAAIDSGGNTYADSVKGRFTISRDNAKNTVYLQMNSLKPEDTAVYYCAVDVGEFSSYGYWGQGTQVTVSS”, the “polyreactivity (PSR sort gate)” value was “low polyreactivity”.

Consider “QVQLVESGGGLVQAGGSLRLSCAASGFTFGRNVIGWYRQAPGKERELVAAISLSGGSTYYADSVKGRFTISRDNAKNTVYLQMNSLKPEDTAVYYCAAGYITWYDYWGQGTQVTVSS”, for which the “polyreactivity (PSR sort gate)” value is on record as “high polyreactivity”.

With “QVQLVESGGGLVQAGGSLRLSCAASGFTFGRYAMGWYRQAPGKEREFVAAITWSGGGTYYADSVKGRFTISRDNAKYTVYLQMYSLKPEDTAVYYCAADRRAYGGGYWGQGTQVTVSS”, the “polyreactivity (PSR sort gate)” value is recorded as “high polyreactivity”. With “QVQLVESGGGLVQAGGSLRLSCAASGFTFGRYAMGWYRQAPGKERELVAAISFSGGRTYYADSVKGRFTISRDNAKNTVYLQMNSLKPEDTAVYYCAARRRQEHVGRSSYARYDYWGQGTQVTVSS”, the “polyreactivity (PSR sort gate)” value is recorded as “high polyreactivity”. The result for “QVQLVESGGGLVQAGGSLRLSCAASGFTFGRYAMGWYRQAPGKERELVASISRSGGSTNYADSVKGRFTISRDNAKNTVYLQMNSLKPEDTAVYYCAAVKGRRYDYWGQGTQVTVSS” reads “high polyreactivity”; that for “QVQLVESGGGLVQAGGSLRLSCAASGFTFGRYAMGWYRQAPGKERELVATISRSGGRTYYADSVKGRFTISRDIAKKTVYLQMNSLKPEDTAVYYCAADTRNYPRYDYWGQGTQVTVSS”, “high polyreactivity”. Turning to “QVQLVESGGGLVQAGGSLRLSCAASGFTFGRYAMGWYRQAPGKERELVATITRTGSTNYADSVKGRFTISRDNAKNTVYLQMNSLKPEDTAVYYCNAGPDRRVSYYRLLDHWGQGTQVTASS”, the “polyreactivity (PSR sort gate)” value was “low polyreactivity”.

For the sequence “QVQLVESGGGLVQAGGSLRLSCAASGFTFGRYAMGWYRQAPGKERELVATITRTGSTNYADSVKGRFTISRDNAKNTVYLQMNSLKPEDTAVYYCNAGPDRRVSYYRLLDHWGQGTQVTVSS”, the “polyreactivity (PSR sort gate)” value was “low polyreactivity”. The result for “QVQLVESGGGLVQAGGSLRLSCAASGFTFGSNAMGWYRQAPGKEREFVAAISGSGDRTYYADSVKGRFTISRDNAKNTVYLQMNSLKPEDTAVYYCATSVRQNYFYSYDDWGQGTQVTVSS” reads “high polyreactivity”; that for “QVQLVESGGGLVQAGGSLRLSCAASGFTFGSNAMGWYRQAPGKEREFVATITKSGGRTYYADSVKGRFTISRDNAKNTVYFQMNSLKPEDTAVYYCAVALSYRTYRKDDYWGQGTQVTVSS”, “high polyreactivity”.

As to “QVQLVESGGGLVQAGGSLRLSCAASGFTFGSNAMGWYRQAPGKERELVAAINYSGVRTYYADSVKGRFTISRDNAKNTVYLQMNSLKPEDTAVSYCAKKRSKPISFDYWGQGTQVTVSS”, the “polyreactivity (PSR sort gate)” value was “high polyreactivity”.

In the case of “QVQLVESGGGLVQAGGSLRLSCAASGFTFGSNAMGWYRQAPGKERELVAAIRSRGGSTYYADSVKGRFTISRDNAKNTVYLQMNSLKPEDTAVYYCAADFIGRDYDYWGQGTQVTVSS”, the “polyreactivity (PSR sort gate)” value is “high polyreactivity”. The result for “QVQLVESGGGLVQAGGSLRLSCAASGFTFGSNAMGWYRQAPGKERELVAAISSTGSTYYADSVKGRFTISRDNAKNTVYLQMNSLKPEDTAVYYCNADSDTPRYDYWGQGTQVTVSS” reads “low polyreactivity”; that for “QVQLVESGGGLVQAGGSLRLSCAASGFTFGSNTMGWYRQAPGKERELVAVITWSGGSTYYADSVKGRFTISRDYAKNTVYLQMNSLKPEDTAVYSCAAEATSPLTWFDYWGQGTQVTVSS”, “low polyreactivity”; that for “QVQLVESGGGLVQAGGSLRLSCAASGFTFGSYAMGWYRPAPGKERELVAGISRGGSTNYADSVKGRFTISRDNAKNTVYLQMNSLKPEDTAVYYCAAYVIGPDQFIYDYWGQGTQVTVSS”, “low polyreactivity”. Regarding “QVQLVESGGGLVQAGGSLRLSCAASGFTFGSYAMGWYRQAPGKERELVAAISGRGGSTYYADSVKGRFTISRDNAKNTVYLQMNSLKPEDTAVYYCATDYSRTFDYWGQGTQVTVSS”, the “polyreactivity (PSR sort gate)” value is on record as “high polyreactivity”. Regarding “QVQLVESGGGLVQAGGSLRLSCAASGFTFGSYAMGWYRQAPGKERELVAAITRSGGGTYYADSVKGRFTISRDNAKNTVYLQMNSLKPEDTSVYYCAAGALQRGVYGFGYWGQGTQVTVSS”, the “polyreactivity (PSR sort gate)” value is listed as “high polyreactivity”. On to “QVQLVESGGGLVQAGGSLRLSCAASGFTFGSYAMGWYRQAPGKERELVAGISRGGSTNYADSVKGRFTISRDNAKNTVYLQMNSLKPEDTAVYYCAARAVYVADTGATPAGYDYWGQGTQVTVSS”, for which the “polyreactivity (PSR sort gate)” value was “low polyreactivity”. In the case of “QVQLVESGGGLVQAGGSLRLSCAASGFTFGTYAMGCYRPAPGKERELVAAISKRGGSTYYADSVKGRFTISRDNAKNTVYLQMNSLKPEDTAVYYCAATRPYSHRDYFYWGQGTQVSVSS”, the “polyreactivity (PSR sort gate)” value is given as “high polyreactivity”. The entry for “QVQLVESGGGLVQAGGSLRLSCAASGFTFGTYAMGWYRQAPGKERELVARISRRSGSTYYADSVKGRFTISRDKAKNTVYLQMNSLKPEDTAVYYCAADSRAKRYYWGQGTQVTVSS” is “high polyreactivity”. Consider “QVQLVESGGGLVQAGGSLRLSCAASGFTFGVYAMGWYRQAPGKERELVAAITATGGSTYYADSVKGRFTISRDNAKNTVYLQMNSLKPADTEVYYCAKPDYYRMGYWVQGTQVTVSS”, for which the “polyreactivity (PSR sort gate)” value is listed as “low polyreactivity”.

“QVQLVESGGGLVQAGGSLRLSCAASGFTFGWYAMGWYRQAPGKERELVAAISRRGGTTYYADSVKGRFTISRDNAKNTVYLQMNSLKPEDTAVYYCAATSYTYVLSPYRGDYWGQGTQVTVSS”: the “polyreactivity (PSR sort gate)” value is reported as “high polyreactivity”. The entry for “QVQLVESGGGLVQAGGSLRLSCAASGFTFGWYAMGWYRQAPGKERELVASISWSGSTTYYADSVKGRFTISRDNAKNTVYLQMNSLKPEDTAVYYCNARRSYVRNDFDYWGQGTQVTVSS” is “high polyreactivity”; for “QVQLVESGGGLVQAGGSLRLSCAASGFTFGWYAMGWYRQAPGKERELVATISWSGSSTYYADSVKGRFTISRDNAKNTVYLQMNSLKPEDTAVYYCNAVYGRFVVLRYDYWGQGTQVTVSS” it is “high polyreactivity”. On to “QVQLVESGGGLVQAGGSLRLSCAASGFTFGWYDMGWYRQAPGKERELVASISWSGSSTYYADSVKGRFTISRDNAKNTVYLQMNSLKPEDTAVYYCATPYWRRYDYWGQGTQVTVSS”, for which the “polyreactivity (PSR sort gate)” value is “high polyreactivity”.

In the case of “QVQLVESGGGLVQAGGSLRLSCAASGFTFGYYAMGWYRQAPGKEREFVARISWSGDSTYYADSVKGRFTISRDNAKNTVYLQMNSLKPEDTSVYYCAAVVQTSWGKWNDYWGPGTQVTVSS”, the “polyreactivity (PSR sort gate)” value is “high polyreactivity”.

“QVQLVESGGGLVQAGGSLRLSCAASGFTFGYYAMGWYRQAPGKERELVAAIRSSGGSTYYADSVKGRFTISRDNAKNTVYLQMNSLKPEDTAVYYCAVLYGYRSSSRYGYDSWGQGTQVTVSS”: the “polyreactivity (PSR sort gate)” value is listed as “high polyreactivity”.

As to “QVQLVESGGGLVQAGGSLRLSCAASGFTFGYYAMGWYRQAPGKERELVAAISKRGGSTYYADSVKGRFTISRDNAKNTVYLQMNSLKPEDTAVYYCATRYTGYPFYGYDYWGQGTQVTVSS”, the “polyreactivity (PSR sort gate)” value was “high polyreactivity”. For the sequence “QVQLVESGGGLVQAGGSLRLSCAASGFTFGYYAMGWYRQAPGKERELVAAITGSGGSTYYADSVKGRFTISRDNAKNTVYLQMNSLKPEDTAVYYCAADKAVYRGSPKNRSPYYYWGQGTQVTVSS”, the “polyreactivity (PSR sort gate)” value is “high polyreactivity”. In the case of “QVQLVESGGGLVQAGGSLRLSCAASGFTFGYYSMGWYSQAPGKERELVAAISSGGNTNYADSVKGRFTISRDNAKNTVYLQMNSLKPEDTAVYYCNSRSWRYYKTYSAFNYWGQGTQVTVSS”, the “polyreactivity (PSR sort gate)” value is “high polyreactivity”. The result for “QVQLVESGGGLVQAGGSLRLSCAASGFTFGYYVRGWYRQAPGKERELVAAITSGGSTYYADSVKGRFTISRDNAKNTVYLQMNSLKPEDTAVYYCAAFLGATYYYWGQGTQVTVSS” reads “high polyreactivity”; that for “QVQLVESGGGLVQAGGSLRLSCAASGFTFHDYAMGWYRQAPGKERELVAAITKSGGRTYYADSVKGRFTISRDNAKNTVYLQMNSLKPEDTAVYYCNAVTLRRIYSNPEYDSWGQGTQVTVSS”, “high polyreactivity”; that for “QVQLVESGGGLVQAGGSLRLSCAASGFTFHGNAMGWYRQAPGKERELVAVISSSGASTYYADSVKGRFTISRDNAKNTVYLQMNSLKPEDTAVYYCAKVSSPLLYVSSDYDYWGQGTQVTVSS”, “high polyreactivity”. “QVQLVESGGGLVQAGGSLRLSCAASGFTFHNNVMGWYRQAPGKERELVATISKSGGSTYYADSVKGRFTISRDNAKNTVYLQMNSLKPEDTAVYYCAALYPYQYVRGGYWGQGTQVTVSS”: the “polyreactivity (PSR sort gate)” value is “high polyreactivity”. For the sequence “QVQLVESGGGLVQAGGSLRLSCAASGFTFHSYAMGWYRQAPGKDRELVAAISRGGGNTYYADSVKGRFTISRDNAKNTVYLQMNSLKPEDTAVYYCAADAIYNFEMDYWGQGTQVTVSS”, the “polyreactivity (PSR sort gate)” value is “high polyreactivity”.
